Data published in US20130224829A1, “NOVEL LIPOXYGENASE DERIVED FROM LEMNA PAUCICOSTATA” (priority 2010, published 2013).

B1: SHLpLOX: Position 9 product specific lipoxygenase obtained from Lemna paucicostata SH strain (SEQ ID NO: 2), expressed in Escherichia coli (protein, listed as Lemna paucicostata)
chain: MAGFLQKVTDNLLHKAAKISGTVVLVKSNVVGFNDFADSFLDGLHELLGSGITFQLVSATVGDPKNGNKGKLGKPALLEKWITTGTFLAAGDSGFKVNFEWDEQLGVPGAVIVKNNHHGEFFLKSLTLDGAPGPRSRIHFDCNSWVYPYSTYNYDRVFFANDTYLPGEMPEPLKAYRAAELVNLRGDGVTRELKEGDRIYAYDLYNDLGDPDSGKELARPILGGSEEYPYPRRARTGRKLTKTDPKSEQRLPLVFSLNVYVPRDERFGHLKMSDFLAYSLKALAQGLVPALDAATDITPFEFDTFQDVLNLYEGGINLPTTPALENFKKQIPFPLVKELFRSDGENLFRLPTPSVIKADKFAWRTDEEFGREMLAGVNPVCIRLLKKFPPVSSLDPSIYRNQNSTMIADQLEKNMNGLSVEEALKQKKLFILDHHDSLMPYLERINTFNKIYASRTVLLLQDDGTLKPLAIELSLPVKGEKGAVSKVYTPAEHGVEGAVWQLAKAYVAVNDSGVHQLISHWLNTHATIEPFSIALNRQLSVVHPIYKLLHPHFRDTMNINAFARQILINAGGILEMTVFPGKYAMEMSSVVYKGWKLTDQALPVDLLNRGVAEKDPSSGELRLLIEDYPYAVDGLDVWNAIEEWVKEYCAIYYPSDKTLQDDTEVQAWWKEVREVGHGDKKDETWWPAMETVAELTQTCSTIIWVASALHAAVNFAQYPYAGYLPNRPTISRRFMPEPGTPEYEELETDPDRAFLKTITSQLQTLIGVSLIEILSRHSSDEIYLGQRVSAEWTSDAKALAAFKAFGEKLITIENKIIEMNVDSSLKNRNGPVKVPYTFLYPNTTDYTRVGGLTGRGIPNSISI
B2: 441LpLOX1: Position 9 product specific lipoxygenase 1 obtained from Lemna paucicostata 441 strain (SEQ ID NO: 4) (protein, listed as Lemna paucicostata)
chain: MDAFIHKVTDVFTHKEENKVAKISGTVVIVKSNVVGFNDFVDSFLDGLHELVGSGITFQLISATVGDPKNGNKGKLGKPAQLERWITTGTFLAAGDSGFKLTFEWDEQLGFPGAVIVKNNHHGEFFLKSFTLDGVPGKKTRIHFDCNSWVYPYSTYNYDRVFFANDTFLPGNMPEPLKAYRAAELANLRGDGVAPRELKEGDRIYAYDVYNDLGDPDSGEELVRPILGGSKEYPYPRRARTGRKMTKTDPKSETRLPLLFSLNVYVPRDERFGHLKMSDFLGYSLKALAQGLVPVLNEAADLTPFEFDTFQDVLNLYEGGIDLPDSPALENVRKQIPFALIKELFRSDGENLFRLPTPAVIKADKFAWRTDEEFGREMLAGVNPVCIRLLTKFPPVSSLDPNTYGDHNSTMTADQLEKNMNGLSVEEALNKKKLFILDHHDSLMPYLERINTFNKIYASRTVLLLQDDGTLKPLAIELSLPIKGQKGAVSKVYTPAEHGVEAAVWQLAKAFAAVNDSGVHQLISHWLNTHATIEPFAIALNRQLSVVHPIYKLLHPHFRDTMNINAFARQILINAGGILEMTVFPGKYALEMSSVVYKGWKLIDHALPVDLLNRGVAENDPSAPGKLRLLIEDYPYAVDGLAVWSAIEIWVKEYCAIYYPSDKILQDDTELQAWWKEVREVGHGDKKDETWWPTMKTVAELTQTCCTIIWVASALHAAVNFGQYPYAGYLPNRPTVSRRFMPEPGTPEYEELKTDPDRAFLKTITSQLQTTIGVSLIEILSRHSSDEVYLGQRISAEWTTDEKALAAFKAFGERLITIENQIIEMNHEPKLKNRNGPVKLPYTLLYPNTSDYTRVGGLTGRGIPNSVSI
B3: 441LpLOX2: Position 9 product specific lipoxygenase 2 obtained from Lemna paucicostata 441 strain (SEQ ID NO: 6) (protein, listed as Lemna paucicostata)
chain: MADFLQKVTNNLLHKAAKISGTVVLVKSNVIGFNDFGDSFLDGLHELLGSGITFQLVSATVGDPNNGNKGKLGKPALLEKWITTGTFLVAGDSGFKVNFEWDEQLGIPGAVIVKNNHHGEFFLKSFTLDGVPGPRSRIHFDCNSWVYPYSTYNYDRVFFANDTYLPGETPEPLKAYRAAELVNLRGDGVTRELKEGDRIYAYDYYNDLGDPDSGKELARPILGGSKEYPYPRRARTGRKLTKTDPKSEQRLPLVFSLNVYVPRDERFGHLKMSDFLAYSLKALAQGLVPALDAAADITPFEFDTFQDVLNLYEGGINLPTTPASENFKKQIPFPLVKELFRSDGENVFRLPTPSVIKADKFAWRTDEEFGREMLAGVNPVCIRLLTKFPPVSSLDPSIYGNQNSTMIADQLEKNMNGLSVEEALKQKKLFILDHHDSLMPYLERINTFNKIYASRTVLLLRDDGTLKPLAIELSLPIKGEKGAVSKVYTPAEHGVEGAVWQLAKAYVAVNDSGVHQLISHWLNTHATIEPFSIALNRQLSVVHPIYKLLHPHFRDTMNINAFARQILINAGGILEMTVFPGKYAMEMSSVVYKGWKLTDQALPVDLLNRGVAEKDPSSGELRLLIEDYPYAVDGLDVWNAIEEWVKEYCAIYYPSDKTLLDDTELQAWWKEVREVGHGDKKDETWWPAMETVAELTQTCCTIIWVASALHAAVNFAQYPYAGYLPNRPTISRRFMPEPGTPEYEELETDPDRAFLKTITSQLQTLIGVSLIEILSRHSSDEIYLGQRVSAEWTSDAKALAAFKAFGEKLITIENKIIQMNVDSSLKNRNGPVKVPYTFLYPNTTDYTRVGGLTGRGIPNSISI

Assay: Lipoxygenase activity of enzyme solutions on α-linolenic acid, reverse-phase HPLC of linolenic acid hydroperoxide
Assay type: biochemical
Conditions: for activity of position 9-product specific lypoxygenase compared with r9-LOX1 (amount of lynolenic acid-9-hydroperoxide): HPLC comparison, FIG. 6; for position 9 product specific lypoxygenase activity (peak of linolenic acid-9-hydroxyperoxide, 21.1 min): α-linolenic acid substrate, pH7.0, 30 minutes reaction, E. coli-expressed enzyme solution
Protocol: The activity of lypoxygenase in the enzyme solutions of SHLpLOX, 441LpLOX1, 441LpLOX2 and r9-LpLOX1 which was used as a control, was determined. 25 μl of 5 mM α-lynolenic acid solution (including 0.05% Tween80), 10 μl of 0.2M phosphate Na Buffer (pH7.0), 5 μl of distilled water were added to 1.5 ml of tube, and then 10 μl of the enzyme solution was added to the tube, and allowed to react for 30 minutes. After the reaction was over, reactant was subjected to HPLC (reverse phase; Column: Capsule pack C-18 UG120 (4.6×250 mm, Shiseido), Column temperature: 40° C., Mobile phase: 50% acetnitril (0.02%TFA), Flow rate 1 ml/min, Detection: 210 nm) so as to detect the site specificity of produced lynolenic acid hydroperoxide and the production amount.
The amount of lynolenic acid-9-hydroperoxide form was compared based on the results of HPLC.

Molecule | activity of position 9-product specific lypoxygenase compared with r9-LOX1 (amount of lynolenic acid-9-hydroperoxide) | position 9 product specific lypoxygenase activity (peak of linolenic acid-9-hydroxyperoxide, 21.1 min)
B1 | far higher activity | have position 9 product specific lypoxygenase activity
B2 | far higher activity | have position 9 product specific lypoxygenase activity
B3 | – | have position 9 product specific lypoxygenase activity
